Where no end group is shown, it is not given here.
Molecular target: T1, recombinant Psb28 (from pIVEXPsb28His) (T. elongatus, UniProt Q8DLJ8 2-116)
T1 sequence: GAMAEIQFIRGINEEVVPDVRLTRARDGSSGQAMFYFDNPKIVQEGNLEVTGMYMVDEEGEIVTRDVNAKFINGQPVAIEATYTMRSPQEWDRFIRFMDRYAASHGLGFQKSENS
Experiment: NMR titration

Kd: 53.92 ± 0.41 µM | koff: 10.1 ± 0.16 s⁻¹
B1: carboxy-terminal peptide from residues 480-499 of CP47 (peptide)
peptide: Ac-SGIDPELSPEQVEWGFYQKV

Source: paper doi:10.1101/2020.09.14.294884 (bioRxiv, 2020)
